The text below walks through data of patent US20220233667A1 (OXFORD UNIVERSITY INNOVATION, published 2022).

Numbering of substitutions follows the chain as printed.

This assay concerns the target T1, PfRH5Nt: amino acids F25-K140 of PfRH5 (3D7) with C-terminal CD4d3+4, biotin acceptor peptide and His6 tags (Plasmodium falciparum (3D7)).
T1 construct: also called recombinant PfRH5Nt
T1 chain: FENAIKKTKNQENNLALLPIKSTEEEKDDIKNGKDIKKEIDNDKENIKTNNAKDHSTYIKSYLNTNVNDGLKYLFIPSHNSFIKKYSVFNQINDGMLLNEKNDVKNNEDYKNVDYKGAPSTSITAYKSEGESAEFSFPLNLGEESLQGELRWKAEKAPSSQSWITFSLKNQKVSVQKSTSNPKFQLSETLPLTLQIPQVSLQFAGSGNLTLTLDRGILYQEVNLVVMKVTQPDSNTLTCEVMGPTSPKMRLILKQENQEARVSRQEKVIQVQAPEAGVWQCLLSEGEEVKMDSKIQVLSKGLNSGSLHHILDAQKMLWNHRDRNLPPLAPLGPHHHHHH
The assay can be described thus: ELISA on coated PfRH5Nt. For orientation: ELISA stands for enzyme-linked immunosorbent assay.

B1: R5.010 (antibody, V domains shown)
VH: EVQLVESGGGLVQPGGSLRLSCAASGFTFSSYWMSWVRQAPGKGLEWVANIKQDGSEKYYVDSVKGRFTISGDNAKNSLYLQMNSLRAEDTAVYYCARGASGYYYYNYGMDVWGQGTRVTVSS
VL: QPVLTQPPSVSVAPGQTARITCGGNNIGIKSVHWYQQKPGQAPVLVVYDDSDRPSGIPERFSGSNSANTATLTISRVEAGDEADYFCQVWDSSSDHPGVFGGGTKLTVLG
notes: also called mAb10
Take B1: the binding result is listed as “no binding (tested: 1000 ng/mL mAb)”.

B2: R5.011 (antibody, V domains shown)
VH: EVQLVQSGSDLKKPGASVKVSCKASGYTFTSYAMNWVRQAPGQGLEWVGWINTNTGNPTYAQGFTGRFVFSLDTSVSTAYLQISSLKAEDTAVYYCARESPNYYDSSGYYSGYYFDYWGQGTLVTVSS
VL: SYELTQPPSVSVAPGQTATITCGGKNIGSKSVHWYQQKPGQAPVLVVYDDSDRPSGIPERFSGSNSGNTATLTISRVEAGDEADYYCQVWDSSSDHRVFGGGTKLTVLG
notes: also called mAb11
Regarding B2, the binding result is “no binding (tested: 1000 ng/mL mAb)”.

B3: R5.014 (antibody, V domains shown)
VH: EVQLVESGGGLVQPGRSLRLSCAASGFTFDDYAMHWVRQAPGKGLEWVSGISWNSASMDYADSVKGRFTISRDNAKNSLYLQMNSLRAEDTALYYCAKDPAPPYCGGDCYPSFDYWGQGTLVTVSS
VL: B2 VL with V10M, Q16K, T19R, K25N, V47I, D49Y, S94R, R97V
notes: also called mAb14
On to B3, for which the binding result is listed as “no binding (tested: 1000 ng/mL mAb)”.

B4: R5.016 (antibody, V domains shown)
VH: QVQLVQSGAEVKKPGASVRVSCKASGYTFTSYGISWVRQAPGQGLEWMGWISGYDGNTNYAQKLQGRVTMTTDTSTSTAYMELRSLRSDDTAVYYCARDGPQVGDFDWQVYYYYGMDVWGQGTTVTVSS
VL: AIRMTQSPSTLSASVGDRVTITCRASQSINTWLAWYQQKPGKAPNLLISKASSLESGVPSRFSGSGSGTEFTLTISSLQPDDFATYFCQQYNSYLYTFGQGTKVEIRR
notes: also called mAb16
As to B4, the binding result is “no binding (tested: 1000 ng/mL mAb)”.
